In data set [1] the test system is HeLa Kyoto. In words: melting temperature (median over replicates), in situ; higher = more thermally stable.
For data set [2], the system named is HeLa Kyoto. In words: thermal stability score vs G1/S (z-score of summed log2 fold changes over temperatures); higher = more thermally stable than in G1/S.
In data set [3] the test system is HeLa Kyoto. In words: solubility change mitosis vs G1/S (difference of NP-40 vs SDS log2 ratios) (log2 ratio difference); higher = more soluble in mitosis.
The test system of data set [4] is HeLa Kyoto. In words: solubility in G1/S (NP-40 vs SDS abundance) (log2 ratio); higher = more soluble. The conditions noted are these: cell cycle stage: G1/S.
[5] abbreviates: cell cycle stage: early G1 (4.5 h after nocodazole release).
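Wherever melting temperature (median over replicates), in situ is given: HeLa Kyoto cells synchronized by double thymidine or nocodazole block, proteins quantified by TMT10plex mass spectrometry, three independent biological replicates.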
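Wherever solubility change mitosis vs G1/S (difference of NP-40 vs SDS log2 ratios) is given: synchronized HeLa Kyoto cells (double thymidine block for G1/S, nocodazole release for mitosis), protein amounts in NP-40 versus SDS lysates quantified by mass spectrometry, three biological replicates.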
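Wherever solubility in G1/S (NP-40 vs SDS abundance) is given: HeLa Kyoto cells arrested at G1/S by double thymidine block, proteins quantified by TMT10plex mass spectrometry in mild NP-40 versus SDS extracts, three biological replicates.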
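Wherever thermal stability score vs G1/S (z-score of summed log2 fold changes over temperatures) is given: synchronized HeLa Kyoto cells, proteins quantified by TMT10plex mass spectrometry, three biological replicates, mitosis taken 0.5 h after nocodazole release, G1/S directly after double thymidine block.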

In the case of “MAFVTRQFMRSVSSSSTASASAKKIIVKHVTVIGGGLMGAGIAQVAAATGHTVVLVDQTEDILAKSKKGIEESLRKVAKKKFAENLKAGDEFVEKTLSTIATSTDAASVVHSTDLVVEAIVENLKVKNELFKRLDKFAAEHTIFASNTSSLQITSIANATTRQDRFAGLHFFNPVPVMKLVEVIKTPMTSQKTFESLVDFSKALGKHPVSCKDTPGFIVNRLLVPYLMEAIRLYERGDASKEDIDTAMKLGAGYPMGPFELLDYVGLDTTKFIVDGWHEMDAENPLHQPSPSLNKLVAENKFGKKTGEGFYKYK [HADH]”, the melting temperature in data set [1] (cell cycle stage: G1/S) amounted to 53.4 °C; in data set [1] (cell cycle stage: mitosis), 53.7 °C. In addition, the thermal stability score in data set [2] (setting [5]) was -2.07; in data set [2] (cell cycle stage: mitosis), -1.2. Also, the “solubility change mitosis (log2)” value in data set [3] amounted to 0.00527. In data set [4], the “solubility in G1/S (log2)” value came to 0.267.

For the substance “MGNRGMEELIPLVNKLQDAFSSIGQSCHLDLPQIAVVGGQSAGKSSVLENFVGRDFLPRGSGIVTRRPLILQLIFSKTEHAEFLHCKSKKFTDFDEVRQEIEAETDRVTGTNKGISPVPINLRVYSPHVLNLTLIDLPGITKVPVGDQPPDIEYQIKDMILQFISRESSLILAVTPANMDLANSDALKLAKEVDPQGLRTIGVITKLDLMDEGTDARDVLENKLLPLRRGYIGVVNRSQKDIEGKKDIRAALAAERKFFLSHPAYRHMADRMGTPHLQKTLNQQLTNHIRESLPALRSKLQSQLLSLEKEVEEYKNFRPDDPTRKTKALLQMVQQFGVDFEKRIEGSGDQVDTLELSGGARINRIFHERFPFELVKMEFDEKDLRREISYAIKNIHGVRTGLFTPDLAFEAIVKKQVVKLKEPCLKCVDLVIQELINTVRQCTSKLSSYPRLREETERIVTTYIREREGRTKDQILLLIDIEQSYINTNHEDFIGFANAQQRSTQLNKKRAIPNQGEILVIRRGWLTINNISLMKGGSKEYWFVLTAESLSWYKDEEEKEKKYMLPLDNLKIRDVEKGFMSNKHVFAIFNTEQRNVYKDLRQIELACDSQEDVDSWKASFLRAGVYPEKDQAENEDGAQENTFSMDPQLERQVETIRNLVDSYVAIINKSIRDLMPKTIMHLMINNTKAFIHHELLAYLYSSADQSSLMEESADQAQRRDDMLRMYHALKEALNIIGDISTSTVSTPVPPPVDDTWLQSASSHSPTPQRRPVSSIHPPGRPPAVRGPTPGPPLIPVPVGAAASFSAPPIPSRPGPQSVFANSDLFPAPPQIPSRPVRIPPGIPPGVPSRRPPAAPSRPTIIRPAEPSLLD [DNM2]”, the melting temperature in data set [1] (cell cycle stage: G1/S) was determined as 50.5 °C; in data set [1] (cell cycle stage: mitosis), 50 °C. In addition, the thermal stability score in data set [2] (setting [5]) is 1.01; in data set [2] (cell cycle stage: mitosis) it was 1.14. In addition, the “solubility change mitosis (log2)” value in data set [3] was -0.144. Moreover, in data set [4], the “solubility in G1/S (log2)” value stood at 0.212.

“MAVATAAAVLAALGGALWLAARRFVGPRVQRLRRGGDPGLMHGKTVLITGANSGLGRATAAELLRLGARVIMGCRDRARAEEAAGQLRRELRQAAECGPEPGVSGVGELIVRELDLASLRSVRAFCQEMLQEEPRLDVLINNAGIFQCPYMKTEDGFEMQFGVNHLGHFLLTNLLLGLLKSSAPSRIVVVSSKLYKYGDINFDDLNSEQSYNKSFCYSRSKLANILFTRELARRLEGTNVTVNVLHPGIVRTNLGRHIHIPLLVKPLFNLVSWAFFKTPVEGAQTSIYLASSPEVEGVSGRYFGDCKEEELLPKAMDESVARKLWDISEVMVGLLK [RDH14]”: the melting temperature amounted to 51.8 °C in data set [1] (cell cycle stage: G1/S) and 51.6 °C in data set [1] (cell cycle stage: mitosis). Besides, the thermal stability score in data set [2] (setting [5]) is 0.98; in data set [2] (cell cycle stage: mitosis) it was 0.294. Besides, the “solubility change mitosis (log2)” value in data set [3] turned out to be 0.0299. The “solubility in G1/S (log2)” value in data set [4] was -0.158.

As to “MADKEAGGSDGPRETAPTSAYSSPARSLGDTGITPLSPSHIVNDTDSNVSEQQSFLVVVAVDFGTTSSGYAYSFTKEPECIHVMRRWEGGDPGVSNQKTPTTILLTPERKFHSFGYAARDFYHDLDPNEAKQWLYLEKFKMKLHTTGDLTMDTDLTAANGKKVKALEIFAYALQYFKEQALKELSDQAGSEFENSDVRWVITVPAIWKQPAKQFMRQAAYQAGLASPENSEQLIIALEPEAASIYCRKLRLHQMIELSSKAAVNGYSGSDTVGAGFTQAKEHIRRNRQSRTFLVENVIGEIWSELEEGDKYVVVDSGGGTVDLTVHQIRLPEGHLKELYKATGGPYGSLGVDYEFEKLLYKIFGEDFIEQFKIKRPAAWVDLMIAFESRKRAAAPDRTNPLNITLPFSFIDYYKKFRGHSVEHALRKSNVDFVKWSSQGMLRMSPDAMNALFKPTIDSIIEHLRDLFQKPEVSTVKFLFLVGGFAEAPLLQQAVQAAFGDQCRIIIPQDVGLTILKGAVLFGLDPAVIKVRRSPLTYGVGVLNRYVEGKHPPEKLLVKDGTRWCTDVFDKFISADQSVALGELVKRSYTPAKPSQLVIVINIYSSEHDNVSFITDPGVKKCGTLRLDLTGTSGTAVPARREIQTLMQFGDTEIKATAIDIATSKSVKVGIDFLNY [HSPA12A]”, the results for the melting temperature in data set [1] (cell cycle stage: G1/S) and in data set [1] (cell cycle stage: mitosis) were 52.1 °C and 52.7 °C, respectively. The thermal stability score in data set [2] (setting [5]) is 0.628; in data set [2] (cell cycle stage: mitosis), 1. Besides, the “solubility change mitosis (log2)” value in data set [3] was -0.113. In addition, the “solubility in G1/S (log2)” value in data set [4] is -0.123.

For the substance “MAKLLSCVLGPRLYKIYRERDSERAPASVPETPTAVTAPHSSSWDTYYQPRALEKHADSILALASVFWSISYYSSPFAFFYLYRKGYLSLSKVVPFSHYAGTLLLLLAGVACLRGIGRWTNPQYRQFITILEATHRNQSSENKRQLANYNFDFRSWPVDFHWEEPSSRKESRGGPSRRGVALLRPEPLHRGTADTLLNRVKKLPCQITSYLVAHTLGRRMLYPGSVYLLQKALMPVLLQGQARLVEECNGRRAKLLACDGNEIDTMFVDRRGTAEPQGQKLVICCEGNAGFYEVGCVSTPLEAGYSVLGWNHPGFAGSTGVPFPQNEANAMDVVVQFAIHRLGFQPQDIIIYAWSIGGFTATWAAMSYPDVSAMILDASFDDLVPLALKVMPDSWRGLVTRTVRQHLNLNNAEQLCRYQGPVLLIRRTKDEIITTTVPEDIMSNRGNDLLLKLLQHRYPRVMAEEGLRVVRQWLEASSQLEEASIYSRWEVEEDWCLSVLRSYQAEHGPDFPWSVGEDMSADGRRQLALFLARKHLHNFEATHCTPLPAQNFQMPWHL [ABHD16A]”, the melting temperature in data set [1] (cell cycle stage: G1/S) stood at 51 °C; in data set [1] (cell cycle stage: mitosis), 51.3 °C. Further, the thermal stability score in data set [2] (setting [5]) was 0.0741; in data set [2] (cell cycle stage: mitosis) it was -0.0149. The “solubility change mitosis (log2)” value in data set [3] was -0.122. In addition, the “solubility in G1/S (log2)” value in data set [4] is -0.125.

With “MGTPGEGLGRCSHALIRGVPESLASGEGAGAGLPALDLAKAQREHGVLGGKLRQRLGLQLLELPPEESLPLGPLLGDTAVIQGDTALITRPWSPARRPEVDGVRKALQDLGLRIVEIGDENATLDGTDVLFTGREFFVGLSKWTNHRGAEIVADTFRDFAVSTVPVSGPSHLRGLCGMGGPRTVVAGSSDAAQKAVRAMAVLTDHPYASLTLPDDAAADCLFLRPGLPGVPPFLLHRGGGDLPNSQEALQKLSDVTLVPVSCSELEKAGAGLSSLCLVLSTRPHS [DDAH2]”, the melting temperature in data set [1] (cell cycle stage: G1/S) amounted to 55.2 °C; in data set [1] (cell cycle stage: mitosis), 54 °C. The thermal stability score amounted to 0.156 in data set [2] (setting [5]) and 0.00237 in data set [2] (cell cycle stage: mitosis). Besides, in data set [3], the “solubility change mitosis (log2)” value amounted to 0.0772. For the same substance, the “solubility in G1/S (log2)” value in data set [4] amounted to 0.479.

In the case of “MGLLRIMMPPKLQLLAVVAFAVAMLFLENQIQKLEESRSKLERAIARHEVREIEQRHTMDGPRQDATLDEEEDMVIIYNRVPKTASTSFTNIAYDLCAKNKYHVLHINTTKNNPVMSLQDQVRFVKNITSWKEMKPGFYHGHVSYLDFAKFGVKKKPIYINVIRDPIERLVSYYYFLRFGDDYRPGLRRRKQGDKKTFDECVAEGGSDCAPEKLWLQIPFFCGHSSECWNVGSRWAMDQAKYNLINEYFLVGVTEELEDFIMLLEAALPRFFRGATELYRTGKKSHLRKTTEKKLPTKQTIAKLQQSDIWKMENEFYEFALEQFQFIRAHAVREKDGDLYILAQNFFYEKIYPKSN [HS2ST1]”, the melting temperature in data set [1] (cell cycle stage: G1/S) stood at 55.1 °C; in data set [1] (cell cycle stage: mitosis), 55.5 °C. The thermal stability score is -0.242 in data set [2] (setting [5]) and 0.814 in data set [2] (cell cycle stage: mitosis). In addition, the “solubility change mitosis (log2)” value in data set [3] was determined as 0.0318. The “solubility in G1/S (log2)” value in data set [4] worked out at 0.0386.

Regarding PROSC, the melting temperature in data set [1] (cell cycle stage: G1/S) was found to be 48.8 °C; in data set [1] (cell cycle stage: mitosis), 49.7 °C. For the same substance, the thermal stability score in data set [2] (setting [5]) turned out to be 1.09; in data set [2] (cell cycle stage: mitosis), 0.951. Further, the “solubility change mitosis (log2)” value in data set [3] was -0.0262. Further, the “solubility in G1/S (log2)” value in data set [4] turned out to be 0.225.

Consider “MASSGEDISNDDDDMHPAAAGMADGVHLLGFSDEILLHILSHVPSTDLILNVRRTCRKLAALCLDKSLIHTVLLQKDYQASEDKVRQLVKEIGREIQQLSMAGCYWLPGSTVEHVARCRSLVKVNLSGCHLTSLRLSKMLSALQHLRSLAIDVSPGFDASQLSSECKATLSRVRELKQTLFTPSYGVVPCCTSLEKLLLYFEILDRTREGAILSGQLMVGQSNVPHYQNLRVFYARLAPGYINQEVVRLYLAVLSDRTPQNLHAFLISVPGSFAESGATKNLLDSMARNVVLDALQLPKSWLNGSSLLQHMKFNNPFYFSFSRCTLSGGHLIQQVINGGKDLRSLASLNLSGCVHCLSPDSLLRKAEDDIDSSILETLVASCCNLRHLNLSAAHHHSSEGLGRHLCQLLARLRHLRSLSLPVCSVADSAPRADRAPAQPAMHAVPRGFGKKVRVGVQSCPSPFSGQACPQPSSVFWSLLKNLPFLEHLELIGSNFSSAMPRNEPAIRNSLPPCSRAQSVGDSEVAAIGQLAFLRHLTLAQLPSVLTGSGLVNIGLQCQQLRSLSLANLGMMGKVVYMPALSDMLKHCKRLRDLRLEQPYFSANAQFFQALSQCPSLQRLCLVSRSGTLQPDAVLAFMARCLQVVMCHLFTGESLATCKSLQQSLLRSFQAERPALNVVIFPLLHEGLTDVIRDVPLVHLDEITLFKSRVAEEPPNLWW [FBXL18]”, for which the melting temperature came to 53.4 °C in data set [1] (cell cycle stage: G1/S) and 53 °C in data set [1] (cell cycle stage: mitosis). For the same substance, the thermal stability score in data set [2] (setting [5]) is -1.04; in data set [2] (cell cycle stage: mitosis), -1.17. Moreover, the “solubility change mitosis (log2)” value in data set [3] was -0.164. In addition, the “solubility in G1/S (log2)” value in data set [4] is 0.1.
